Consider 28 molecules from patent publication US20250011363A1, “OPTIMIZED SHORTENED PEPTIDE THAT BINDS TO ACETYLCHOLINE RECEPTOR, AND USE THEREOF” (SKINMED CO., LTD., priority 2021, published 2025).

The test concerns the target acetylcholine receptor. Kind of test: SPR, AchR immobilised on CM5 chip, peptide 10 uM. (Surface plasmon resonance follows binding to a sensor surface in real time, without labels.)

B1: 6mer-1-1018 (peptide)
peptide: KKTAFK
For the molecule B1, the Binding affinity (RU) came out at 28 RU.

B2: 6mer-1-1008 (peptide)
peptide: RKPWAR
For B2, the Binding affinity (RU) came to 21 RU.

B3: 6mer-1-998 (peptide)
peptide: KRNPVK
In the case of B3, the Binding affinity (RU) was 41 RU.

B4: 6mer-1-996 (peptide)
peptide: RRPPWK
Molecule B4 came in with a Binding affinity (RU) of 39 RU.

B5: 6mer-1-1021 (peptide)
peptide: KKHDIK
Turning to B5, the Binding affinity (RU) worked out at 41 RU.

B6: 6mer-1-1006 (peptide)
peptide: KKDKIK
For the molecule B6, the Binding affinity (RU) is 25 RU.

B7: 6mer-1-1002 (peptide)
peptide: KRIHMK
Take B7: the Binding affinity (RU) turned out to be 29 RU.

B8: 6mer-1-1022 (peptide)
peptide: RKDTVR
As for B8, the Binding affinity (RU) worked out at 22 RU.

B9: 6mer-1-1004 (peptide)
peptide: RKHSHR
In turn, B9 displayed a Binding affinity (RU) of 41 RU.

B10: 6mer-1-1012 (peptide)
peptide: RRAWVR
On to B10, for which the Binding affinity (RU) was determined as 35 RU.

B11: 6mer-1-1009 (peptide)
peptide: RKMSKK
B11: the Binding affinity (RU) stood at 29 RU.

B12: 6mer-1-1016 (peptide)
peptide: KRHTHR
B12 showed a Binding affinity (RU) of 21 RU.

B13: 6mer-1-1005 (peptide)
peptide: RKPPDR
As for B13, the Binding affinity (RU) came to 26 RU.

B14: 6mer-1-999 (peptide)
peptide: RKATNR
B14 yielded a Binding affinity (RU) of 24 RU.

B15: 6mer-1-1020 (peptide)
peptide: KKMEAK
For B15, the Binding affinity (RU) worked out at 38 RU.

B16: 6mer-1-1011 (peptide)
peptide: RKKPEK
With B16, the Binding affinity (RU) was 35 RU.

B17: 6mer-1-1007 (peptide)
peptide: RKPTDR
B17 registered a Binding affinity (RU) of 39 RU.

B18: 6mer-1-1023 (peptide)
peptide: KRIMHK
On to B18, for which the Binding affinity (RU) is 39 RU.

B19: 6mer-1-1013 (peptide)
peptide: KKTTNK
In turn, B19 showed a Binding affinity (RU) of 29 RU.

B20: 6mer-1-1010 (peptide)
peptide: KKPKHK
Molecule B20 returned a Binding affinity (RU) of 33 RU.

B21: 6mer-1-1014 (peptide)
peptide: KKNAWR
Consider B21, for which the Binding affinity (RU) was determined as 25 RU.

B22: 6mer-1-1000 (peptide)
peptide: RKMSHR
Regarding B22, the Binding affinity (RU) turned out to be 28 RU.

B23: 6mer-1-997 (peptide)
peptide: KKPTFR
B23 came in with a Binding affinity (RU) of 35 RU.

B24: 6mer-1-1003 (peptide)
peptide: RKYCHR
Molecule B24 gave a Binding affinity (RU) of 24 RU.

B25: 6mer-1-1017 (peptide)
peptide: KRANMK
B25: the Binding affinity (RU) was determined as 37 RU.

B26: 6mer-1-1015 (peptide)
peptide: KREEWR
B26: the Binding affinity (RU) was 26 RU.

B27: 6mer-1-1024 (peptide)
peptide: RKTEIR
The molecule B27 returned a Binding affinity (RU) of 36 RU.

B28: 6mer-1-1019 (peptide)
peptide: KRDAWR
B28 had a Binding affinity (RU) of 37 RU.
